IntAct's records for PubMed 16902413

What follows are substances tested against nebu_human NEB (UniProt P20929).

Substance	effect of a mutation on the interaction
Titin (Homo sapiens), Q8WZ42 P258G	decreasing interaction
Titin (Homo sapiens), Q8WZ42 P266G	decreasing interaction
Titin (Homo sapiens), Q8WZ42 P268G	decreasing interaction

Further lines, results first:

effect of a mutation on the interaction	Substance
decreasing interaction	Titin (Homo sapiens), Q8WZ42 P254G
decreasing interaction	Titin (Homo sapiens), Q8WZ42 P269G
